Results from publication PMC9482650, “Quantitative fragmentomics allow affinity mapping of interactomes” (Nature Communications, 2022).

T1: DFNB31_3, Q9P202
T1 sequence (Q9P202 811-907, limits assumed, looked up): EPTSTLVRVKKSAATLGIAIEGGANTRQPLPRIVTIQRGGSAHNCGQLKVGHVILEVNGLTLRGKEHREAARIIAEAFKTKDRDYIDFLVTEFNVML

T2: PARD3B_1, Q8TEW8
T2 sequence (Q8TEW8 196-299, limits assumed, looked up): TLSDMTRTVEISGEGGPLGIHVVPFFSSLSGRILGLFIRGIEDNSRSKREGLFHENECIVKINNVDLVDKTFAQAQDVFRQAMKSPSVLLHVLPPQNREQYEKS

T3: DFNB31_2, Q9P202
T3 sequence (Q9P202 274-371, limits assumed, looked up): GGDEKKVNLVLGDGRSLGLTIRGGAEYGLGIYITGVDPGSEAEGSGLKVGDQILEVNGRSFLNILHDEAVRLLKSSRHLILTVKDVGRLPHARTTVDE

T4: APBA2_1, Q99767
T4 sequence (Q99767 563-664, limits assumed, looked up): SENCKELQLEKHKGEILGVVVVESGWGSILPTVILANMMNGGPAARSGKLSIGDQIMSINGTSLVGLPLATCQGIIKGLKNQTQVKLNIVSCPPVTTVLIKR

T5: DLG3_3, Q92796
T5 sequence (Q92796 374-475, limits assumed, looked up): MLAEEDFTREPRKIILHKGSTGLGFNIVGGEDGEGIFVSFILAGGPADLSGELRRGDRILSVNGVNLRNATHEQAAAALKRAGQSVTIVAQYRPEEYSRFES

T6: APBA3_1, O96018
T6 sequence (O96018 389-490, limits assumed, looked up): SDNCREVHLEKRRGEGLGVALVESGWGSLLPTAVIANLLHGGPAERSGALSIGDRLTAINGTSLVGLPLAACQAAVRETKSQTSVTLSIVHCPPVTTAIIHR

T7: DLG3_2, Q92796
T7 sequence (Q92796 221-321, limits assumed, looked up): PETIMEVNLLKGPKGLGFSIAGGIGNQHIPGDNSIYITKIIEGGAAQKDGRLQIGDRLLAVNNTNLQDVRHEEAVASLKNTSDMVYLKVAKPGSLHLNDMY

T8: SNTA1, Q13424
T8 sequence (Q13424 82-180, limits assumed, looked up): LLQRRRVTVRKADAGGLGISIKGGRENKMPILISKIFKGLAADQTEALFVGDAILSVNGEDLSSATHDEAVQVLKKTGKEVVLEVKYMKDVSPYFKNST

T9: SNTG1, Q9NSN8
T9 sequence (Q9NSN8 52-150, limits assumed, looked up): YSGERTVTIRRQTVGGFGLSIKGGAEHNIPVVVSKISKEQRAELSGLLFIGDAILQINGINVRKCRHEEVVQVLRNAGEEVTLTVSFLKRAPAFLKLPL

T10: MPP6, Q9NZW5
T10 sequence (Q9NZW5 125-219, limits assumed, looked up): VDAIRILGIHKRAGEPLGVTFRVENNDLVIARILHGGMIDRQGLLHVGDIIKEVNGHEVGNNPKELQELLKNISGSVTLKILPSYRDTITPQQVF

T11: HTRA3, P83110
T11 sequence (P83110 354-453, limits assumed, looked up): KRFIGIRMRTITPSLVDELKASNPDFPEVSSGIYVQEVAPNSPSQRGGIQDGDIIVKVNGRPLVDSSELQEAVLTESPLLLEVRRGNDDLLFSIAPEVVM


How the values were obtained:
Test in all cases: holdup assay
Design in all cases: key: below the threshold = too weak to quantify, mostly under pKd 3.1 to 4
Conditions in all cases: plain residues with an end cap or a label only (N-terminal biotin on a linker: ado-ado)
MAGI2_4, Q86UL8 = target: MAGI2_4, Q86UL8
HTRA1, Q92743 = target: HTRA1, Q92743
Inadl_9, Q8NI35 = target: Inadl_9, Q8NI35
IL16_1, Q14005 = target: IL16_1, Q14005
DFNB31_3, Q9P202 = target: T1, DFNB31_3, Q9P202
DLG4_3, P78352 = target: DLG4_3, P78352
PARD3B_1, Q8TEW8 = target: T2, PARD3B_1, Q8TEW8
SCRIB_1, Q14160 = target: SCRIB_1, Q14160
DFNB31_2, Q9P202 = target: T3, DFNB31_2, Q9P202
APBA2_1, Q99767 = target: T4, APBA2_1, Q99767
DLG3_3, Q92796 = target: T5, DLG3_3, Q92796
IL16_4, Q14005 = target: IL16_4, Q14005
GRIP2_5, Q9C0E4 = target: GRIP2_5, Q9C0E4
LAP2, Q96RT1 = target: LAP2, Q96RT1
Inadl_6, Q8NI35 = target: Inadl_6, Q8NI35
APBA3_1, O96018 = target: T6, APBA3_1, O96018
DLG3_2, Q92796 = target: T7, DLG3_2, Q92796
Inadl_2, Q8NI35 = target: Inadl_2, Q8NI35
SNTA1, Q13424 = target: T8, SNTA1, Q13424
SNTG1, Q9NSN8 = target: T9, SNTG1, Q9NSN8
NHERF2_2, Q15599 = target: NHERF2_2, Q15599
GRASP, Q7Z6J2 = target: GRASP, Q7Z6J2
MAST1, Q9Y2H9 = target: MAST1, Q9Y2H9
LNX1_2, Q8TBB1 = target: LNX1_2, Q8TBB1
MPP6, Q9NZW5 = target: T10, MPP6, Q9NZW5
HTRA3, P83110 = target: T11, HTRA3, P83110

MAGI2_4, Q86UL8, sequence (Q86UL8 772-865): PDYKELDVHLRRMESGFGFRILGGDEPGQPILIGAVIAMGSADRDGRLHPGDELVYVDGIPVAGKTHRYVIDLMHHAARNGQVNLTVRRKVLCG
SCRIB_1, Q14160, sequence (Q14160 718-814): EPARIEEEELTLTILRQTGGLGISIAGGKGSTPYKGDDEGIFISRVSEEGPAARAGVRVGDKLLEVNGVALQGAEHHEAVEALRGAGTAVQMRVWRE
GRIP2_5, Q9C0E4, sequence (Q9C0E4 544-642): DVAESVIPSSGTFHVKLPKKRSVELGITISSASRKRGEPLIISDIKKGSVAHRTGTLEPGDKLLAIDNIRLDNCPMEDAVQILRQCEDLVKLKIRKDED
MAST1, Q9Y2H9, sequence (Q9Y2H9 962-1065): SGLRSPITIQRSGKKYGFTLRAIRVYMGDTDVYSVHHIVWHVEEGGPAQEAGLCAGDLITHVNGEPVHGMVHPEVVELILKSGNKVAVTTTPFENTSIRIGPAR
IL16_4, Q14005, sequence (Q14005 1229-1329): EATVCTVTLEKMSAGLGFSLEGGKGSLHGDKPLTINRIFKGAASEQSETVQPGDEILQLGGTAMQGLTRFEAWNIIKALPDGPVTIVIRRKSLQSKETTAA
Inadl_6, Q8NI35, sequence (Q8NI35 1058-1167): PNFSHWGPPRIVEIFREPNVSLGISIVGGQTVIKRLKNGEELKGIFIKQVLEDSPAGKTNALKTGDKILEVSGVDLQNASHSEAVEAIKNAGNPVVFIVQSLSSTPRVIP
DLG4_3, P78352, sequence (P78352 306-403): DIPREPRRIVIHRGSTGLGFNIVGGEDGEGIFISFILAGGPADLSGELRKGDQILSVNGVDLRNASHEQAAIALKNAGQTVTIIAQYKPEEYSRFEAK
IL16_1, Q14005, sequence (Q14005 210-306): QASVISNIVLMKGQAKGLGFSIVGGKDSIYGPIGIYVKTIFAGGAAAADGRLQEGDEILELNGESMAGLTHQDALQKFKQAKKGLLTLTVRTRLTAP
LNX1_2, Q8TBB1, sequence (Q8TBB1 371-470): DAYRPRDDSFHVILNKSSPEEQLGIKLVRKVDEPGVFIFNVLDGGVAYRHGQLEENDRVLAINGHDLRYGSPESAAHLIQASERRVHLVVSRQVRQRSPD
GRASP, Q7Z6J2, sequence (Q7Z6J2 96-193): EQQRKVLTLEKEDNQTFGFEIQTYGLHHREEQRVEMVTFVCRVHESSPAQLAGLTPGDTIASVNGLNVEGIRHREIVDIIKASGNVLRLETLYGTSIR
Inadl_9, Q8NI35, sequence (Q8NI35 1530-1615): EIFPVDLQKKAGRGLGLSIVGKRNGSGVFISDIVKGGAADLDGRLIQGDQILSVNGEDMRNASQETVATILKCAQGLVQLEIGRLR
NHERF2_2, Q15599, sequence (Q15599 142-238): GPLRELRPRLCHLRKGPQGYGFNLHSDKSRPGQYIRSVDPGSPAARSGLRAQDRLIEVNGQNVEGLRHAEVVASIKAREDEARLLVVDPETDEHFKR
LAP2, Q96RT1, sequence (Q96RT1 other isoform, or with tags, fused parts or gaps): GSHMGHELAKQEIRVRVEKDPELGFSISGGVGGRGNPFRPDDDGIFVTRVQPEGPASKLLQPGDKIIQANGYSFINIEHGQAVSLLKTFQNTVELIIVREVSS
HTRA1, Q92743, sequence (Q92743 360-477): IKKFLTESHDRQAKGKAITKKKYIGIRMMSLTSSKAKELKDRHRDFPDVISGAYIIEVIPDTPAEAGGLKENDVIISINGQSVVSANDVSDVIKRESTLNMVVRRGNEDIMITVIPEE
Inadl_2, Q8NI35, sequence (Q8NI35 238-335): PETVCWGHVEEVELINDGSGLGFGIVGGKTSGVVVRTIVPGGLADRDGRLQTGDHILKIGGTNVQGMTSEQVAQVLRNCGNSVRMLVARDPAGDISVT

| Binder | pKd (MAGI2_4, Q86UL8) | pKd (HTRA1, Q92743) | pKd (Inadl_9, Q8NI35) | pKd (IL16_1, Q14005) | pKd (DFNB31_3, Q9P202) | pKd (DLG4_3, P78352) | pKd (PARD3B_1, Q8TEW8) | pKd (SCRIB_1, Q14160) | pKd (DFNB31_2, Q9P202) | pKd (APBA2_1, Q99767) | pKd (DLG3_3, Q92796) | pKd (IL16_4, Q14005) | pKd (GRIP2_5, Q9C0E4) | pKd (LAP2, Q96RT1) | pKd (Inadl_6, Q8NI35) | pKd (APBA3_1, O96018) | pKd (DLG3_2, Q92796) | pKd (Inadl_2, Q8NI35) | pKd (SNTA1, Q13424) | pKd (SNTG1, Q9NSN8) | further results |
| --- | --- | --- | --- | --- | --- | --- | --- | --- | --- | --- | --- | --- | --- | --- | --- | --- | --- | --- | --- | --- | --- |
| REEPDHSTEV [CCRL2, O00421] | 3.95 | 4.44 | 4 | 3.59 | below the threshold | below the threshold | below the threshold | 4.03 | below the threshold | below the threshold | 3.6 | below the threshold | below the threshold | 4.15 | below the threshold | below the threshold | 4.59 | below the threshold | 4.45 | 4.36 | pKd (NHERF2_2, Q15599): 3.65; pKd (GRASP, Q7Z6J2): 3.77; pKd (MAST1, Q9Y2H9): 4.74; pKd (LNX1_2, Q8TBB1): 3.65; pKd (MPP6, Q9NZW5): below the threshold; pKd (HTRA3, P83110): 3.48 |
| QSYPSKHDYV [CLDN18, P56856] | 3.68 | 4.32 | 4.12 | below the threshold | below the threshold | below the threshold | below the threshold | below the threshold | below the threshold | 3.57 | below the threshold | 3.78 | below the threshold | below the threshold | below the threshold | below the threshold | below the threshold | below the threshold | 3.58 | below the threshold | pKd (NHERF2_2, Q15599): below the threshold; pKd (GRASP, Q7Z6J2): 3.71; pKd (MAST1, Q9Y2H9): 4; pKd (LNX1_2, Q8TBB1): 3.69; pKd (MPP6, Q9NZW5): below the threshold; pKd (HTRA3, P83110): 4.19 |
| EPQYQPGENL [SRC, P12931] | below the threshold | below the threshold | below the threshold | below the threshold | below the threshold | below the threshold | 3.91 | 3.49 | below the threshold | below the threshold | below the threshold | 3.5 | below the threshold | below the threshold | below the threshold | below the threshold | below the threshold | below the threshold | below the threshold | below the threshold | pKd (NHERF2_2, Q15599): 3.77; pKd (GRASP, Q7Z6J2): below the threshold; pKd (MAST1, Q9Y2H9): 4.18; pKd (LNX1_2, Q8TBB1): below the threshold; pKd (MPP6, Q9NZW5): below the threshold; pKd (HTRA3, P83110): below the threshold |
| DGVNEKVSCV [HTR2A, P28223] | 3.72 | 4.95 | below the threshold | 4.72 | 3.88 | below the threshold | below the threshold | below the threshold | below the threshold | below the threshold | below the threshold | 3.56 | below the threshold | below the threshold | 3.57 | below the threshold | 4.82 | below the threshold | 4.66 | 4.33 | pKd (NHERF2_2, Q15599): below the threshold; pKd (GRASP, Q7Z6J2): 4.21; pKd (MAST1, Q9Y2H9): 3.65; pKd (LNX1_2, Q8TBB1): below the threshold; pKd (MPP6, Q9NZW5): below the threshold; pKd (HTRA3, P83110): 3.94 |
